Test results: article PMC4652773, “Functional significance of protein assemblies predicted by the crystal structure of the restriction endonuclease BsaWI”
Values belong to the molecule of their own block, whether it stands above or below them.

Legend:
[1] = molecular target: BsaWI D145A (Bacillus stearothermophilus W1718); assay: SEC; gel filtration at 5 μM loading concentration; Superdex column, room temperature, 20 mM Tris-HCl pH 7.4, 0.5 M NaCl, 5% glycerol; oligomeric state from the apparent Mw
[2] = molecular target: BsaWI D175A (Bacillus stearothermophilus W1718); assay: as above
[3] = molecular target: BsaWI E128A (Bacillus stearothermophilus W1718); assay: native gel or EMSA; 1 nM 33P-labeled 30-bp SP duplex with 0.02-1000 nM protein, 40 mM Tris-acetate pH 8.3, 0.1 mg/ml BSA, 10% glycerol, 5 mM CaCl2, room temperature; oligomeric state of the DNA-bound protein read from the mobility of the complex
[4] = molecular target: BsaWI E128A (Bacillus stearothermophilus W1718); assay: SEC; gel filtration of the tetramerization interface mutants at up to 25 μM protein; Superdex column, room temperature, 20 mM Tris-HCl pH 7.4, 0.5 M NaCl, 5% glycerol
[5] = molecular target: BsaWI E128A (Bacillus stearothermophilus W1718)
[6] = molecular target: BsaWI E128A (Bacillus stearothermophilus W1718); assay: SEC; gel filtration at 5 μM loading concentration; Superdex column, room temperature, 20 mM Tris-HCl pH 7.4, 0.5 M NaCl, 5% glycerol; oligomeric state from the apparent Mw
[7] = molecular target: BsaWI E128A&R130A (Bacillus stearothermophilus W1718); assay: native gel or EMSA; 1 nM 33P-labeled 30-bp SP duplex with 0.02-1000 nM protein, 40 mM Tris-acetate pH 8.3, 0.1 mg/ml BSA, 10% glycerol, 5 mM CaCl2, room temperature; oligomeric state of the DNA-bound protein read from the mobility of the complex
[8] = molecular target: BsaWI E128A&R130A (Bacillus stearothermophilus W1718); assay: SEC; gel filtration of the tetramerization interface mutants at up to 25 μM protein; Superdex column, room temperature, 20 mM Tris-HCl pH 7.4, 0.5 M NaCl, 5% glycerol
[9] = molecular target: BsaWI E128A&R130A (Bacillus stearothermophilus W1718)
[10] = molecular target: BsaWI E128A&R130A (Bacillus stearothermophilus W1718); assay: SEC; gel filtration at 5 μM loading concentration; Superdex column, room temperature, 20 mM Tris-HCl pH 7.4, 0.5 M NaCl, 5% glycerol; oligomeric state from the apparent Mw
[11] = molecular target: BsaWI E128A&W262A (Bacillus stearothermophilus W1718); assay: native gel or EMSA; 1 nM 33P-labeled 30-bp SP duplex with 0.02-1000 nM protein, 40 mM Tris-acetate pH 8.3, 0.1 mg/ml BSA, 10% glycerol, 5 mM CaCl2, room temperature; oligomeric state of the DNA-bound protein read from the mobility of the complex
[12] = molecular target: BsaWI E128A&W262A (Bacillus stearothermophilus W1718); assay: SEC; gel filtration of the tetramerization interface mutants at up to 25 μM protein; Superdex column, room temperature, 20 mM Tris-HCl pH 7.4, 0.5 M NaCl, 5% glycerol
[13] = molecular target: BsaWI E128A&W262A (Bacillus stearothermophilus W1718)
[14] = molecular target: BsaWI E128A&W262A (Bacillus stearothermophilus W1718); assay: SEC; gel filtration at 5 μM loading concentration; Superdex column, room temperature, 20 mM Tris-HCl pH 7.4, 0.5 M NaCl, 5% glycerol; oligomeric state from the apparent Mw
[15] = molecular target: BsaWI K85A (Bacillus stearothermophilus W1718); assay: as above
[16] = molecular target: BsaWI R130A (Bacillus stearothermophilus W1718); assay: native gel or EMSA; 1 nM 33P-labeled 30-bp SP duplex with 0.02-1000 nM protein, 40 mM Tris-acetate pH 8.3, 0.1 mg/ml BSA, 10% glycerol, 5 mM CaCl2, room temperature; oligomeric state of the DNA-bound protein read from the mobility of the complex
[17] = molecular target: BsaWI R130A (Bacillus stearothermophilus W1718); assay: SEC; gel filtration of the tetramerization interface mutants at up to 25 μM protein; Superdex column, room temperature, 20 mM Tris-HCl pH 7.4, 0.5 M NaCl, 5% glycerol
[18] = molecular target: BsaWI R130A (Bacillus stearothermophilus W1718)
[19] = molecular target: BsaWI R130A (Bacillus stearothermophilus W1718); assay: SEC; gel filtration at 5 μM loading concentration; Superdex column, room temperature, 20 mM Tris-HCl pH 7.4, 0.5 M NaCl, 5% glycerol; oligomeric state from the apparent Mw
[20] = molecular target: BsaWI R130A&R259A (Bacillus stearothermophilus W1718); assay: native gel or EMSA; 1 nM 33P-labeled 30-bp SP duplex with 0.02-1000 nM protein, 40 mM Tris-acetate pH 8.3, 0.1 mg/ml BSA, 10% glycerol, 5 mM CaCl2, room temperature; oligomeric state of the DNA-bound protein read from the mobility of the complex
[21] = molecular target: BsaWI R130A&R259A (Bacillus stearothermophilus W1718); assay: SEC; gel filtration of the tetramerization interface mutants at up to 25 μM protein; Superdex column, room temperature, 20 mM Tris-HCl pH 7.4, 0.5 M NaCl, 5% glycerol
[22] = molecular target: BsaWI R130A&R259A (Bacillus stearothermophilus W1718)
[23] = molecular target: BsaWI R130A&R259A (Bacillus stearothermophilus W1718); assay: SEC; gel filtration at 5 μM loading concentration; Superdex column, room temperature, 20 mM Tris-HCl pH 7.4, 0.5 M NaCl, 5% glycerol; oligomeric state from the apparent Mw
[24] = molecular target: BsaWI R259A (Bacillus stearothermophilus W1718); assay: native gel or EMSA; 1 nM 33P-labeled 30-bp SP duplex with 0.02-1000 nM protein, 40 mM Tris-acetate pH 8.3, 0.1 mg/ml BSA, 10% glycerol, 5 mM CaCl2, room temperature; oligomeric state of the DNA-bound protein read from the mobility of the complex
[25] = molecular target: BsaWI R259A (Bacillus stearothermophilus W1718); assay: SEC; gel filtration of the tetramerization interface mutants at up to 25 μM protein; Superdex column, room temperature, 20 mM Tris-HCl pH 7.4, 0.5 M NaCl, 5% glycerol
[26] = molecular target: BsaWI R259A (Bacillus stearothermophilus W1718)
[27] = molecular target: BsaWI R259A (Bacillus stearothermophilus W1718); assay: SEC; gel filtration at 5 μM loading concentration; Superdex column, room temperature, 20 mM Tris-HCl pH 7.4, 0.5 M NaCl, 5% glycerol; oligomeric state from the apparent Mw
[28] = molecular target: BsaWI R259A&W262A (Bacillus stearothermophilus W1718); assay: native gel or EMSA; 1 nM 33P-labeled 30-bp SP duplex with 0.02-1000 nM protein, 40 mM Tris-acetate pH 8.3, 0.1 mg/ml BSA, 10% glycerol, 5 mM CaCl2, room temperature; oligomeric state of the DNA-bound protein read from the mobility of the complex
[29] = molecular target: BsaWI R259A&W262A (Bacillus stearothermophilus W1718); assay: SEC; gel filtration of the tetramerization interface mutants at up to 25 μM protein; Superdex column, room temperature, 20 mM Tris-HCl pH 7.4, 0.5 M NaCl, 5% glycerol
[30] = molecular target: BsaWI R259A&W262A (Bacillus stearothermophilus W1718)
[31] = molecular target: BsaWI R259A&W262A (Bacillus stearothermophilus W1718); assay: SEC; gel filtration at 5 μM loading concentration; Superdex column, room temperature, 20 mM Tris-HCl pH 7.4, 0.5 M NaCl, 5% glycerol; oligomeric state from the apparent Mw
[32] = molecular target: restriction endonuclease BsaWI, wild type (Bacillus stearothermophilus W1718); assay: native gel or EMSA; 1 nM 33P-labeled 30-bp SP duplex with 0.02-1000 nM protein, 40 mM Tris-acetate pH 8.3, 0.1 mg/ml BSA, 10% glycerol, 5 mM CaCl2, room temperature; oligomeric state of the DNA-bound protein read from the mobility of the complex
[33] = molecular target: restriction endonuclease BsaWI, wild type (Bacillus stearothermophilus W1718); assay: SEC; gel filtration at 2.5-5 μM loading concentration (concentration series); Superdex column, room temperature, 20 mM Tris-HCl pH 7.4, 0.5 M NaCl, 5% glycerol
[34] = molecular target: restriction endonuclease BsaWI, wild type (Bacillus stearothermophilus W1718); assay: SEC; gel filtration at low loading concentrations (0.25-1 μM); Superdex column, room temperature, 20 mM Tris-HCl pH 7.4, 0.5 M NaCl, 5% glycerol
[35] = molecular target: restriction endonuclease BsaWI, wild type (Bacillus stearothermophilus W1718); assay: SEC; gel filtration of the BsaWI-DNA complex with the 30 bp SP oligoduplex; Superdex column, room temperature, 20 mM Tris-HCl pH 7.4, 0.5 M NaCl, 5% glycerol
[36] = molecular target: restriction endonuclease BsaWI, wild type (Bacillus stearothermophilus W1718)
[37] = molecular target: restriction endonuclease BsaWI, wild type (Bacillus stearothermophilus W1718); assay: SEC; gel filtration at 5 μM loading concentration; Superdex column, room temperature, 20 mM Tris-HCl pH 7.4, 0.5 M NaCl, 5% glycerol; oligomeric state from the apparent Mw
BsaWI wt [38] = molecular target: T1, BsaWI wt (UniProt Q6UQ65 1-272); assay: crystal structure; 0.02 M CaCl2 in crystallization buffer; no Ca2+ seen; pre-specific complex; 2.40 A; EMSA: 40 mM Tris-acetate pH 8.3, 0.1 mg/ml BSA, 10% glycerol, 5 mM CaCl2 or 0.1 mM EDTA, 1 nM DNA, room temperature, 15 min; conditions: protein: recombinant; chain copies: 4; blunt; self-complementary, 2 copies of strand
T1 sequence: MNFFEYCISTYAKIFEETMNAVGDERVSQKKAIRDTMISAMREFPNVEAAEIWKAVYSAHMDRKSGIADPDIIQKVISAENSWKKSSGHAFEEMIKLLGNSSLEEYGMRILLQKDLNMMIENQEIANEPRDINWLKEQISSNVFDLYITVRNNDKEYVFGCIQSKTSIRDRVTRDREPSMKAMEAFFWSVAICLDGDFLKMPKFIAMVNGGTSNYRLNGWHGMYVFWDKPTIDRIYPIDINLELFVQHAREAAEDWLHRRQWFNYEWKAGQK

BsaWI wt [39] = molecular target: T1, BsaWI wt; assay: EMSA; 5 mM Ca2+; lower mobility complex; EMSA: 40 mM Tris-acetate pH 8.3, 0.1 mg/ml BSA, 10% glycerol, 5 mM CaCl2 or 0.1 mM EDTA, 1 nM DNA, room temperature, 15 min; conditions: protein: recombinant; chain copies: 4; label: 33P; blunt

stoichiometry N [1]: 4
Molecule: BsaWI D145A (enzyme)

stoichiometry N [2]: 4
Molecule: BsaWI D175A (enzyme)

stoichiometry N [3]: 2
stoichiometry N [4]: 2
ratio of DNA cleavage rate constants kobs for the 2-site and 1-site substrates at optimal enzyme concentration [5]: 17.9
stoichiometry N [6]: 2
Molecule: BsaWI E128A (enzyme)

stoichiometry N [7]: 2
stoichiometry N [8]: 2
ratio of DNA cleavage rate constants kobs for the 2-site and 1-site substrates at optimal enzyme concentration [9]: 1.8
stoichiometry N [10]: 2
Molecule: BsaWI E128A&R130A (enzyme)

stoichiometry N [11]: 2
stoichiometry N [12]: 2
ratio of DNA cleavage rate constants kobs for the 2-site and 1-site substrates at optimal enzyme concentration [13]: 2.2
stoichiometry N [14]: 2
Molecule: BsaWI E128A&W262A (enzyme)

stoichiometry N [15]: 4
Molecule: BsaWI K85A (enzyme)

stoichiometry N [16]: 2
stoichiometry N [17]: 2
ratio of DNA cleavage rate constants kobs for the 2-site and 1-site substrates at optimal enzyme concentration [18]: 2.4
stoichiometry N [19]: 2
Molecule: BsaWI R130A (enzyme)

stoichiometry N [20]: 2
stoichiometry N [21]: 2
ratio of DNA cleavage rate constants kobs for the 2-site and 1-site substrates at optimal enzyme concentration [22]: 1.1
stoichiometry N [23]: 2
Molecule: BsaWI R130A&R259A (enzyme)

stoichiometry N [24]: 2
stoichiometry N [25]: 2
ratio of DNA cleavage rate constants kobs for the 2-site and 1-site substrates at optimal enzyme concentration [26]: 14.4
stoichiometry N [27]: 2
Molecule: BsaWI R259A (enzyme)

stoichiometry N [28]: 2
stoichiometry N [29]: 2
ratio of DNA cleavage rate constants kobs for the 2-site and 1-site substrates at optimal enzyme concentration [30]: 2.2
stoichiometry N [31]: 2
Molecule: BsaWI R259A&W262A (enzyme)

stoichiometry N [32]: 4
stoichiometry N [33]: 4
stoichiometry N [34]: 2
stoichiometry N [35]: 4
ratio of DNA cleavage rate constants kobs for the 2-site and 1-site substrates at optimal enzyme concentration [36]: 20.6
stoichiometry N [37]: 4
Molecule: restriction endonuclease BsaWI, wild type (enzyme)

B1: SP14 (dsDNA)
DNA 1: CTCGACCGGTCGAG
DNA 2: CTCGACCGGTCGAG
binding result (BsaWI wt [38]): binds

B2: NSP (dsDNA)
DNA 1: AATGGGCTCGCACGCCTGGTATTATCGATTGTA
DNA 2: TACAATCGATAATACCAGGCGTGCGAGCCCATT
Kd (BsaWI wt [39]): ~10 nM
